Reference: paper PMC9352680, “A comprehensive thermodynamic model for RNA binding by the Saccharomyces cerevisiae Pumilio protein PUF4”
Positions count from the first letter of the chain named. Numbers in names are those of the source.

T1: PUF4 RNA-binding domain (Saccharomyces cerevisiae, UniProt P25339 537-888)
T1 sequence: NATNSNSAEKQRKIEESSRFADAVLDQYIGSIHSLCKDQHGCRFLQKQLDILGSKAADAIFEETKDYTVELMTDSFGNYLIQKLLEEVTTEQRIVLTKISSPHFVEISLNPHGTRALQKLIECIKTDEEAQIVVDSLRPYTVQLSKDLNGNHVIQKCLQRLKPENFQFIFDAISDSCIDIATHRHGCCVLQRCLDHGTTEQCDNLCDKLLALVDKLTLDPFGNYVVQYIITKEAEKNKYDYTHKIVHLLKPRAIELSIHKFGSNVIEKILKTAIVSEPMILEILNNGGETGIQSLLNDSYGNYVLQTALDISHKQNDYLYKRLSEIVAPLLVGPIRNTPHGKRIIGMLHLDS

B1: Id_ii_S2_P3E.3_K3.2_C3.2_[C-2A]_H3.2_A3.1_F3.1_T3.2_[T9C]_[A10G] (ssRNA)
RNA: UUUGAUUAAUAUGAUAUCGUUCUUUCUAUUAUAUAUACGUUCUUUCUCGAUAUCAUAUUAAUCUUU
B2: Id_ii_S2_P3E.3_K3.2_C3.2_[C-2T]_H3.2_A3.1_F3.1_T3.2_[T9G]_[A10T] (ssRNA)
RNA: B1 RNA with A28U, C38G, G39U
B3: Id_ii_S2_P3E.3_K3.2_C3.2_[C-2T]_H3.2_A3.1_F3.1_T3.2_[T9C]_[A10C] (ssRNA)
RNA: B1 RNA with A28U, G39C
B4: Id_ii_S2_P3E.3_K3.2_C3.2_[C-2T]_[T-1C]_H3.2_A3.1_F3.1_T3.2_[T9C]_[A10T] (ssRNA)
RNA: B1 RNA with A28U, U29C, G39U
B5: Id_ii_S2_P3E.3_K3.2_C3.2_[C-2T]_[T-1A]_H3.2_A3.1_F3.1_T3.2_[T9C]_[A10C] (ssRNA)
RNA: B1 RNA with A28U, U29A, G39C
B6: Id_ii_S2_P3E.3_K3.2_C3.2_[C-2T]_H3.2_A3.1_F3.1_T3.2_[T9A] (ssRNA)
RNA: B1 RNA with A28U, C38A, G39A
B7: Id_ii_S2_P3E.3_K3.2_C3.2_[C-2T]_H3.2_A3.1_F3.1_T3.2_[A10C] (ssRNA)
RNA: B1 RNA with A28U, C38U, G39C
B8: Id_ii_S2_P3E.3_K3.2_C3.2_[C-2T]_[T-1A]_H3.2_A3.1_F3.1_T3.2_[A10T] (ssRNA)
RNA: B1 RNA with A28U, U29A, C38U, G39U
B9: Id_ii_S2_P3E.3_K3.2_C3.2_[C-2T]_[T-1A]_H3.2_A3.1_F3.1_T3.2_[T9C]_[A10T] (ssRNA)
RNA: B1 RNA with A28U, U29A, G39U
B10: Id_ii_S2_P3E.3_K3.2_C3.2_[C-2A]_[T-1C]_H3.2_A3.1_F3.1_T3.2_[A10C] (ssRNA)
RNA: B1 RNA with U29C, C38U, G39C
B11: Id_ii_S2_P3E.3_K3.2_C3.2_[C-2A]_[T-1G]_H3.2_A3.1_F3.1_T3.2_[T9A] (ssRNA)
RNA: B1 RNA with U29G, C38A, G39A
B12: Id_ii_S2_P3E.3_K3.2_C3.2_[C-2T]_[T-1A]_H3.2_A3.1_F3.1_T3.2_[T9A]_[A10T] (ssRNA)
RNA: B1 RNA with A28U, U29A, C38A, G39U
B13: Id_ii_S2_P3E.3_K3.2_C3.2_[C-2T]_[T-1C]_H3.2_A3.1_F3.1_T3.2_[T9G]_[A10C] (ssRNA)
RNA: B1 RNA with A28U, U29C, C38G, G39C
B14: Id_ii_S2_P3E.3_K3.2_C3.2_[C-2T]_[T-1C]_H3.2_A3.1_F3.1_T3.2_[T9C] (ssRNA)
RNA: B1 RNA with A28U, U29C, G39A
B15: Id_ii_S2_P3E.3_K3.2_C3.2_[C-2T]_H3.2_A3.1_F3.1_T3.2_[T9G]_[A10C] (ssRNA)
RNA: B1 RNA with A28U, C38G, G39C
B16: Id_ii_S2_P3E.3_K3.2_C3.2_[C-2T]_[T-1G]_H3.2_A3.1_F3.1_T3.2_[T9A]_[A10T] (ssRNA)
RNA: B1 RNA with A28U, U29G, C38A, G39U
B17: Id_ii_S2_P3E.3_K3.2_C3.2_[C-2T]_H3.2_A3.1_F3.1_T3.2_[A10T] (ssRNA)
RNA: B1 RNA with A28U, C38U, G39U
B18: Id_ii_S2_P3E.3_K3.2_C3.2_[C-2T]_[T-1C]_H3.2_A3.1_F3.1_T3.2_[A10T] (ssRNA)
RNA: B1 RNA with A28U, U29C, C38U, G39U
B19: Id_ii_S2_P3E.3_K3.2_C3.2_[C-2A]_[T-1C]_H3.2_A3.1_F3.1_T3.2_[T9C]_[A10T] (ssRNA)
RNA: B1 RNA with U29C, G39U
B20: Id_ii_S2_P3E.3_K3.2_C3.2_[C-2G]_H3.2_A3.1_F3.1_T3.2_[A10T] (ssRNA)
RNA: B1 RNA with A28G, C38U, G39U
B21: Id_ii_S2_P3E.3_K3.2_C3.2_[C-2A]_[T-1C]_H3.2_A3.1_F3.1_T3.2_[T9G]_[A10C] (ssRNA)
RNA: B1 RNA with U29C, C38G, G39C
B22: Id_ii_S2_P3E.3_K3.2_C3.2_[C-2T]_H3.2_A3.1_F3.1_T3.2_[T9A]_[A10C] (ssRNA)
RNA: B1 RNA with A28U, C38A, G39C
B23: Id_ii_S2_P3E.3_K3.2_C3.2_[C-2T]_[T-1A]_H3.2_A3.1_F3.1_T3.2_[T9A] (ssRNA)
RNA: B1 RNA with A28U, U29A, C38A, G39A
B24: Id_ii_S2_P3E.3_K3.2_C3.2_[C-2A]_H3.2_A3.1_F3.1_T3.2_[T9C]_[A10T] (ssRNA)
RNA: B1 RNA with G39U
B25: Id_ii_S2_P3E.3_K3.2_C3.2_[C-2T]_[T-1G]_H3.2_A3.1_F3.1_T3.2_[A10T] (ssRNA)
RNA: B1 RNA with A28U, U29G, C38U, G39U
B26: Id_ii_S2_P3E.3_K3.2_C3.2_[C-2T]_[T-1A]_H3.2_A3.1_F3.1_T3.2_[A10G] (ssRNA)
RNA: B1 RNA with A28U, U29A, C38U

Target: T1, PUF4 RNA-binding domain
Assay: Mg; RNA-MaP; 20 mM Na-HEPES pH 7.4, 30 mM KOAc, 0.75 mM MgCl2, 0.1% Tween-20, 5% glycerol, 0.1 mg/mL BSA, 2 mM DTT; 25 C; 0.0125-409.6 nM protein
Settings: tags: N-His6-TEV cleaved; C-SNAP kept, Cy3B-labelled; label: tethered on chip by stalled RNA polymerase

Row | Binder | Kd [nM]
1 | B1 | 713
2 | B2 | 253
3 | B3 | 191
4 | B4 | 88
5 | B5 | 63.8
6 | B6 | 925
7 | B7 | 130
8 | B8 | 83.4
9 | B9 | 45.6
10 | B10 | 183
11 | B11 | 809
12 | B12 | 247
13 | B13 | 393
14 | B14 | 175
15 | B15 | 277
16 | B16 | 1.67
17 | B17 | 78.5
18 | B18 | 68.1
19 | B19 | 103
20 | B20 | 9.18
21 | B21 | 1590
22 | B22 | 262
23 | B23 | 498
24 | B24 | 214
25 | B25 | 1.25
26 | B26 | 554
27 | UCUCUUUGUAUUAUUGUCUCUU (ssRNA) [Ia_S1_P5E.1_K5.1_C5.1_H5.1_A5.1_F5.1_[A10G]_T5.1] | 14.8
28 | UCUCUUUGUGUUAAUAUCUCUU (ssRNA) [Ib_S1_P5E.1_K5.1_C5.1_H5.1_[A4G]_A5.1_F5.1_[T8A]_T5.1] | 134
29 | UCUCUUUGUUUUACUAUCUCUU (ssRNA) [Ib_S1_P5E.1_K5.1_C5.1_H5.1_[A4T]_A5.1_F5.1_[T8C]_T5.1] | 59.6
